Laboratory results as given in paper PMC9482650, “Quantitative fragmentomics allow affinity mapping of interactomes” (Nature Communications, 2022).

T1: PTPN13_1, Q12923
T1 sequence (Q12923 1088-1188, limits assumed, looked up): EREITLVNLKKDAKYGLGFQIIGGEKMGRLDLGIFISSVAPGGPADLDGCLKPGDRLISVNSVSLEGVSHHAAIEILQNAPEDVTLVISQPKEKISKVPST

T2: PDZRN3_1, Q9UPQ7
T2 sequence (Q9UPQ7 244-349, limits assumed, looked up): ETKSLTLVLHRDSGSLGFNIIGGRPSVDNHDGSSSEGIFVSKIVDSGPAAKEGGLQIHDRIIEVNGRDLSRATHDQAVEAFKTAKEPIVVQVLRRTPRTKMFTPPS

T3: LIN7A, O14910
T3 sequence (O14910 103-200, limits assumed, looked up): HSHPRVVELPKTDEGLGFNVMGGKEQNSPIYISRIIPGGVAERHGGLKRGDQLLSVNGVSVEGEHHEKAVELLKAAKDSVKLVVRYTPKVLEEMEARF

T4: MPP7, Q5T2T1
T4 sequence (Q5T2T1 134-230, limits assumed, looked up): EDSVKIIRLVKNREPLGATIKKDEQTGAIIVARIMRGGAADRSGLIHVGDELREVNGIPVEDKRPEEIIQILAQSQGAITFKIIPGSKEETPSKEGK

T5: PCLO, Q9Y6V0
T5 sequence (Q9Y6V0 4491-4600, limits assumed, looked up): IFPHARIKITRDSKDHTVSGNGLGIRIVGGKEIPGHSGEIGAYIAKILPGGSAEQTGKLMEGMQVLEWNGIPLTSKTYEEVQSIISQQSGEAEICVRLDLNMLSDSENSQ

T6: MPP6, Q9NZW5
T6 sequence (Q9NZW5 125-219, limits assumed, looked up): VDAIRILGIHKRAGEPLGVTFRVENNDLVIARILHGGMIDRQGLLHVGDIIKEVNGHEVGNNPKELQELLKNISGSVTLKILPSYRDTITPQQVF

T7: GRIP1_7, Q9Y3R0
T7 sequence (Q9Y3R0 999-1096, limits assumed, looked up): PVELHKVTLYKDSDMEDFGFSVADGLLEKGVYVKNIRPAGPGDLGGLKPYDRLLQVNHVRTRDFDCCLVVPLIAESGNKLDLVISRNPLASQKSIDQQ

T8: ARHGEF11, O15085
T8 sequence (O15085 42-136, limits assumed, looked up): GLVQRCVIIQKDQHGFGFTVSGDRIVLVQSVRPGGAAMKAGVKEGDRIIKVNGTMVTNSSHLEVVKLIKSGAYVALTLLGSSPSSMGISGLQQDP

T9: SYNJ2BP, P57105
T9 sequence (P57105 8-110, limits assumed, looked up): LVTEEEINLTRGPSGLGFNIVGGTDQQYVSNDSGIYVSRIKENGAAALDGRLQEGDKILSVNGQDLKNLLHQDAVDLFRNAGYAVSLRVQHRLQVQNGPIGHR

T10: GRIP1_5, Q9Y3R0
T10 sequence (Q9Y3R0 568-668, limits assumed, looked up): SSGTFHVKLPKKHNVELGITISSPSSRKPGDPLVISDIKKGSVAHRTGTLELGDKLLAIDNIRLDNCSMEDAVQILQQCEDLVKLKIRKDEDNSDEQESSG


Legend:
Test in all cases: holdup assay
Design in all cases: key: below the threshold = too weak to quantify, mostly under pKd 3.1 to 4
Settings in all cases: plain residues with an end cap or a label only (N-terminal biotin on a linker: ado-ado)
PTPN13_1, Q12923 = target: T1, PTPN13_1, Q12923
PDZRN3_1, Q9UPQ7 = target: T2, PDZRN3_1, Q9UPQ7
AHNAK1, Q09666 = target: AHNAK1, Q09666
DLG4_2, P78352 = target: DLG4_2, P78352
MAGI1_1, Q96QZ7 = target: MAGI1_1, Q96QZ7
HTRA1, Q92743 = target: HTRA1, Q92743
MAGI2_5, Q86UL8 = target: MAGI2_5, Q86UL8
NHERF4_2, Q86UT5 = target: NHERF4_2, Q86UT5
GRIP2_6, Q9C0E4 = target: GRIP2_6, Q9C0E4
LIN7A, O14910 = target: T3, LIN7A, O14910
MPP7, Q5T2T1 = target: T4, MPP7, Q5T2T1
PCLO, Q9Y6V0 = target: T5, PCLO, Q9Y6V0
GRID2IP_1, A4D2P6 = target: GRID2IP_1, A4D2P6
Inadl_4, Q8NI35 = target: Inadl_4, Q8NI35
MAGI2_3, Q86UL8 = target: MAGI2_3, Q86UL8
GIPC2, Q8TF65 = target: GIPC2, Q8TF65
MPP6, Q9NZW5 = target: T6, MPP6, Q9NZW5
SCRIB_2, Q14160 = target: SCRIB_2, Q14160
GRIP1_7, Q9Y3R0 = target: T7, GRIP1_7, Q9Y3R0
MAST2, Q6P0Q8 = target: MAST2, Q6P0Q8
GRASP, Q7Z6J2 = target: GRASP, Q7Z6J2
MAGI1_2, Q96QZ7 = target: MAGI1_2, Q96QZ7
ARHGEF11, O15085 = target: T8, ARHGEF11, O15085
SYNJ2BP, P57105 = target: T9, SYNJ2BP, P57105
GRIP2_3, Q9C0E4 = target: GRIP2_3, Q9C0E4
GRIP1_5, Q9Y3R0 = target: T10, GRIP1_5, Q9Y3R0
FRMPD2_1, Q68DX3 = target: FRMPD2_1, Q68DX3
Sequence of FRMPD2_1, Q68DX3 (Q68DX3 770-861): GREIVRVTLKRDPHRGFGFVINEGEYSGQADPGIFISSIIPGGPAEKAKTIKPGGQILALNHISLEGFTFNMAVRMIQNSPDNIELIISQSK

Sequence of GIPC2, Q8TF65 (Q8TF65 112-203): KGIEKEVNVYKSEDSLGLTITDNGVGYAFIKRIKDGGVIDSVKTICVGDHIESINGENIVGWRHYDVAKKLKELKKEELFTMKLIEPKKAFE
Sequence of HTRA1, Q92743 (Q92743 360-477): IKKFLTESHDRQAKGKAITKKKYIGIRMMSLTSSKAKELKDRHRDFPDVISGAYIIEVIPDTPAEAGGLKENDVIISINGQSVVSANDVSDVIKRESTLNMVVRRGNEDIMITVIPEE
Sequence of MAGI1_2, Q96QZ7 (Q96QZ7 456-580): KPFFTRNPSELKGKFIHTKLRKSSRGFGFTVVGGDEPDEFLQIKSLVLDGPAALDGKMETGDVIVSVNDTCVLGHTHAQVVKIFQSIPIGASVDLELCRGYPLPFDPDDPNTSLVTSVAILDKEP
Sequence of MAST2, Q6P0Q8 (Q6P0Q8 1099-1202): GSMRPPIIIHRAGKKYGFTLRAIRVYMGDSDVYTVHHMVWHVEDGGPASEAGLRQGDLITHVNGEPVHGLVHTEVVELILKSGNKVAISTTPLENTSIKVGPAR
Sequence of MAGI2_3, Q86UL8 (Q86UL8 600-682): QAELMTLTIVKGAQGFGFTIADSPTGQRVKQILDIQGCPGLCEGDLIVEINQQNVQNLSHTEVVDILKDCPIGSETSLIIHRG
Sequence of GRASP, Q7Z6J2 (Q7Z6J2 96-193): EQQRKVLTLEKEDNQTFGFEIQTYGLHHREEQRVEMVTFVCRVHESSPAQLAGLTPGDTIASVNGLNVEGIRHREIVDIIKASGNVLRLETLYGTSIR
Sequence of MAGI1_1, Q96QZ7 (Q96QZ7 1-106): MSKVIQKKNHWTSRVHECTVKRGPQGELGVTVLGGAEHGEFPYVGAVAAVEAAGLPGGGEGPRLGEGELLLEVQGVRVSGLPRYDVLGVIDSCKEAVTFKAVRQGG
Sequence of Inadl_4, Q8NI35 (Q8NI35 547-651): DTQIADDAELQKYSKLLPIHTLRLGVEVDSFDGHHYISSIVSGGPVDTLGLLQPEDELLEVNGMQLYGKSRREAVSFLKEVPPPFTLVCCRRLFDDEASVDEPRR
Sequence of GRIP2_3, Q9C0E4 (Q9C0E4 238-339): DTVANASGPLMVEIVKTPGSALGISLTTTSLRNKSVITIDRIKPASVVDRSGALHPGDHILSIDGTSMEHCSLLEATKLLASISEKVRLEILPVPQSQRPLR
Sequence of MAGI2_5, Q86UL8 (Q86UL8 915-1017): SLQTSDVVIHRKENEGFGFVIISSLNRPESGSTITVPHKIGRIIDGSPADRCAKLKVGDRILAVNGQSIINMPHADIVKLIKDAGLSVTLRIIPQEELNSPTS
Sequence of GRIP2_6, Q9C0E4 (Q9C0E4 648-740): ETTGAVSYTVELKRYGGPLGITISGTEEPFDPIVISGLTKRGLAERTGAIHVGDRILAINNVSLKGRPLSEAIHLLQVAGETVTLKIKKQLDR
Sequence of GRID2IP_1, A4D2P6 (A4D2P6 1-87): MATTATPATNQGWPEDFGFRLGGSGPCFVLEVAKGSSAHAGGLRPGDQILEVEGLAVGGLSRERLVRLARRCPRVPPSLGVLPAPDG
Sequence of SCRIB_2, Q14160 (Q14160 857-960): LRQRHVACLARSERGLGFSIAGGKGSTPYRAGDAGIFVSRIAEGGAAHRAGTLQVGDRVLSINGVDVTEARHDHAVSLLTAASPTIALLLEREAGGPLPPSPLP
Sequence of DLG4_2, P78352 (P78352 155-259): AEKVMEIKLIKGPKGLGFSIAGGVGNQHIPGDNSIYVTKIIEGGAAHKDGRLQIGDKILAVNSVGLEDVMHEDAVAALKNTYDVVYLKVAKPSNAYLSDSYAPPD
Sequence of NHERF4_2, Q86UT5 (Q86UT5 220-308): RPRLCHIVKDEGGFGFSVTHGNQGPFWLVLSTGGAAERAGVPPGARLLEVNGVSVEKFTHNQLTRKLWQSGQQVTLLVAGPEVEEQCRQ
Sequence of AHNAK1, Q09666 (Q09666 4-100): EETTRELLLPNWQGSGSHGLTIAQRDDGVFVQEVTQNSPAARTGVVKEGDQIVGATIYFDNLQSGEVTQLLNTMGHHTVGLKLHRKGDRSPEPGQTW

Row | pKd (PTPN13_1, Q12923) | pKd (PDZRN3_1, Q9UPQ7) | pKd (AHNAK1, Q09666) | pKd (DLG4_2, P78352) | pKd (MAGI1_1, Q96QZ7) | pKd (HTRA1, Q92743) | pKd (MAGI2_5, Q86UL8) | pKd (NHERF4_2, Q86UT5) | pKd (GRIP2_6, Q9C0E4) | pKd (LIN7A, O14910) | pKd (MPP7, Q5T2T1) | pKd (PCLO, Q9Y6V0) | pKd (GRID2IP_1, A4D2P6) | pKd (Inadl_4, Q8NI35) | pKd (MAGI2_3, Q86UL8) | pKd (GIPC2, Q8TF65) | pKd (MPP6, Q9NZW5) | pKd (SCRIB_2, Q14160) | pKd (GRIP1_7, Q9Y3R0) | pKd (MAST2, Q6P0Q8) | Binder | also measured
1 | below the threshold | 3.83 | below the threshold | below the threshold | below the threshold | 3.64 | below the threshold | below the threshold | below the threshold | below the threshold | below the threshold | below the threshold | below the threshold | below the threshold | below the threshold | below the threshold | below the threshold | below the threshold | below the threshold | below the threshold | NSTHNLKDYV [CLDN20, P56880] | pKd (GRASP, Q7Z6J2): 3.47; pKd (MAGI1_2, Q96QZ7): below the threshold; pKd (ARHGEF11, O15085): below the threshold; pKd (SYNJ2BP, P57105): below the threshold; pKd (GRIP2_3, Q9C0E4): below the threshold; pKd (GRIP1_5, Q9Y3R0): below the threshold; pKd (FRMPD2_1, Q68DX3): below the threshold
2 | below the threshold | 3.92 | below the threshold | 4.28 | below the threshold | 3.82 | 3.99 | 3.49 | below the threshold | below the threshold | below the threshold | below the threshold | below the threshold | below the threshold | 3.98 | 3.83 | below the threshold | 4.44 | below the threshold | 5.82 | TKEIPNCTSV [SORCS3, Q9UPU3] | pKd (GRASP, Q7Z6J2): 4.74; pKd (MAGI1_2, Q96QZ7): 3.94; pKd (ARHGEF11, O15085): 4.82; pKd (SYNJ2BP, P57105): 4.72; pKd (GRIP2_3, Q9C0E4): below the threshold; pKd (GRIP1_5, Q9Y3R0): below the threshold; pKd (FRMPD2_1, Q68DX3): below the threshold
3 | 3.57 | 3.74 | 3.55 | 4.61 | below the threshold | 4.4 | below the threshold | 3.62 | 3.49 | below the threshold | below the threshold | below the threshold | below the threshold | below the threshold | below the threshold | 3.87 | 3.8 | 3.69 | below the threshold | 4.08 | QLKSGRDSTV [TMEM178A, Q8NBL3] | pKd (GRASP, Q7Z6J2): 3.56; pKd (MAGI1_2, Q96QZ7): 3.49; pKd (ARHGEF11, O15085): 4.11; pKd (SYNJ2BP, P57105): 4.48; pKd (GRIP2_3, Q9C0E4): 3.51; pKd (GRIP1_5, Q9Y3R0): below the threshold; pKd (FRMPD2_1, Q68DX3): below the threshold
